Source: the FLAb antibody collection (doi:10.7554/elife.23156)

B1: scFv; the commonest letter at each place (parent)
chain 1: EVKLDETGGGLVQPGRPMKLSCVASGFTFSDYWMNWVRQSPEKGLEWVAQIRNKPYNYETYYSDSVKGRFTISRDDSKSSVYLQMNNLRVEDMGIYYCTGSYYGMDYWGQGTSVTVS
chain 2: DVVMTQTPLSLPVSLGDQASISCRSSQSLVHSNGNTYLRWYLQKPGQSPKVLIYKVSNRFSGVPDRFSGSGSGTDFTLKISRVEAEDLGVYFCSQSTHVPWTFGGGTKLEIK

Legend:
fluorescein = variants of: B1; assay: Kd (Tite-Seq); details: with fluorescein; format: scFv 4-4-20, heavy + light
[1] = variants of: B1; assay: yeast surface expression (ratio to wild type); higher = more expressed; details: format: scFv 4-4-20, heavy + light

Row | Variant | Kd (fluorescein) | yeast surface expression [1]
1 | chain 1 M34V V37D | 3.74 µM | 0.584
2 | chain 1 M34V V37K | ≥ 10 µM | 0.747
3 | chain 1 M34V W36N | ≥ 10 µM | 0.502
4 | chain 1 M34W | 0.0391 µM | 0.869
5 | chain 1 M34W N35C | ≥ 10 µM | 0.721
6 | chain 1 M34W N35M | ≥ 10 µM | 0.653
7 | chain 1 M34W W36T | ≥ 10 µM | 0.686
8 | chain 1 M34Y | 0.0107 µM | 1.05
9 | chain 1 M34Y N35R | ≥ 10 µM | 0.505
10 | chain 1 M34Y N35V | ≥ 10 µM | 0.434
11 | chain 1 M34Y V37M | 0.0107 µM | 0.807
12 | chain 1 M34Y W36K | ≥ 10 µM | 0.113
13 | chain 1 M34Y W36V | ≥ 10 µM | 0.522
14 | chain 1 M105A | ≥ 10 µM | 1.01
15 | chain 1 M105A D106V | ≥ 10 µM | 0.494
16 | chain 1 M105A G109A | ≥ 10 µM | 0.685
17 | chain 1 M105A G109F | ≥ 10 µM | 0.203
18 | chain 1 M105A W108L | 0.00184 µM | 0.505
19 | chain 1 M105A W108Q | ≥ 10 µM | 0.38
20 | chain 1 M105A Y107M | ≥ 10 µM | 0.661
21 | chain 1 M105C | 4.48 µM | 0.861
22 | chain 1 M105C D106E | ≥ 10 µM | 0.902
23 | chain 1 M105C D106S | 3.37 µM | 0.728
24 | chain 1 M105C G109V | ≥ 10 µM | 0.171

Row | Variant | Kd (fluorescein) | yeast surface expression [1]
25 | chain 1 M105C W108M | 0.000389 µM | 0.656
26 | chain 1 M105D | ≥ 10 µM | 0.695
27 | chain 1 M105D D106C | ≥ 10 µM | 0.616
28 | chain 1 M105D D106G | ≥ 10 µM | 0.347
29 | chain 1 M105D D106I | ≥ 10 µM | 0.844
30 | chain 1 M105D D106T | ≥ 10 µM | 0.588
31 | chain 1 M105D G109F | ≥ 10 µM | 0.218
32 | chain 1 M105D W108S | ≥ 10 µM | 0.458
33 | chain 1 M105D W108T | ≥ 10 µM | 0.455
34 | chain 1 M105D Y107D | ≥ 10 µM | 0.442
35 | chain 1 M105E | 4.15 µM | 1.01
36 | chain 1 M105E D106C | ≥ 10 µM | 0.779
37 | chain 1 M105E D106Y | ≥ 10 µM | 0.534
38 | chain 1 M105E G109W | ≥ 10 µM | 0.278
39 | chain 1 M105E Y107C | ≥ 10 µM | 0.847
40 | chain 1 M105F | 0.945 µM | 0.745
41 | chain 1 M105F D106C | ≥ 10 µM | 1.03
42 | chain 1 M105F D106L | ≥ 10 µM | 0.356
43 | chain 1 M105F G109L | ≥ 10 µM | 0.369
44 | chain 1 M105F W108L | 0.00175 µM | 0.451
45 | chain 1 M105F W108Y | 0.0113 µM | 0.656
46 | chain 1 M105F Y107S G109S | ≥ 10 µM | 0.81
47 | chain 1 M105G | ≥ 10 µM | 0.761
48 | chain 1 M105G D106Q | ≥ 10 µM | 0.514

Row | Variant | Kd (fluorescein) | yeast surface expression [1]
49 | chain 1 M105G D106R | ≥ 10 µM | 0.434
50 | chain 1 M105G G109S | ≥ 10 µM | 0.794
51 | chain 1 M105G W108N | ≥ 10 µM | 0.415
52 | chain 1 M105H | ≥ 10 µM | 1.06
53 | chain 1 M105H G109T | ≥ 10 µM | 0.442
54 | chain 1 M105H W108D | ≥ 10 µM | 0.353
55 | chain 1 M105H W108Q | ≥ 10 µM | 0.294
56 | chain 1 M105H Y107G | ≥ 10 µM | 0.412
57 | chain 1 M105I | 0.0335 µM | 0.914
58 | chain 1 M105I D106Y | ≥ 10 µM | 0.4
59 | chain 1 M105I W108G | ≥ 10 µM | 0.529
60 | chain 1 M105I W108V | 0.000724 µM | 0.782
61 | chain 1 M105I Y107Q | 8.13 µM | 0.872
62 | chain 1 M105I Y107S | ≥ 10 µM | 0.853
63 | chain 1 M105I Y107W | 0.105 µM | 0.669
64 | chain 1 M105K | 0.00546 µM | 1.02
65 | chain 1 M105K D106E | 3.2 µM | 1.01
66 | chain 1 M105K G109W | ≥ 10 µM | 0.118
67 | chain 1 M105K Y107L G109V | ≥ 10 µM | 0.223
68 | chain 1 M105K Y107T | 0.712 µM | 0.559
69 | chain 1 M105L | 0.00519 µM | 0.924
70 | chain 1 M105L G109C | ≥ 10 µM | 0.26
71 | chain 1 M105L Y107I | 2.34 µM | 1.09
72 | chain 1 M105L Y107V | 1.72 µM | 1.08

Row | Variant | Kd (fluorescein) | yeast surface expression [1]
73 | chain 1 M105N | 0.0233 µM | 0.844
74 | chain 1 M105N D106P | ≥ 10 µM | 0.2
75 | chain 1 M105N G109A | ≥ 10 µM | 0.467
76 | chain 1 M105N G109C | ≥ 10 µM | 0.123
77 | chain 1 M105N G109E | ≥ 10 µM | 0.266
78 | chain 1 M105N G109Q | ≥ 10 µM | 0.235
79 | chain 1 M105N Y107I | ≥ 10 µM | 1.2
80 | chain 1 M105P | ≥ 10 µM | 0.648
81 | chain 1 M105P D106E | ≥ 10 µM | 0.7
82 | chain 1 M105P G109I | ≥ 10 µM | 0.208
83 | chain 1 M105P G109T | ≥ 10 µM | 0.291
84 | chain 1 M105P W108E G109W | ≥ 10 µM | 0.297
85 | chain 1 M105P W108S | ≥ 10 µM | 0.621
86 | chain 1 M105P Y107H | ≥ 10 µM | 0.635
87 | chain 1 M105Q | 0.0423 µM | 1.23
88 | chain 1 M105Q D106Q | ≥ 10 µM | 1.01
89 | chain 1 M105Q D106S | 0.0808 µM | 1.17
90 | chain 1 M105Q G109H | ≥ 10 µM | 0.299
91 | chain 1 M105Q G109M | ≥ 10 µM | 0.216
92 | chain 1 M105Q G109W | ≥ 10 µM | 0.115
93 | chain 1 M105Q G109Y | ≥ 10 µM | 0.231
94 | chain 1 M105Q W108E | ≥ 10 µM | 0.438
95 | chain 1 M105Q Y107E W108T | 0.0162 µM | 0.548
96 | chain 1 M105R | 0.021 µM | 1

Row | Variant | Kd (fluorescein) | yeast surface expression [1]
97 | chain 1 M105R D106N | 0.61 µM | 0.717
98 | chain 1 M105R G109T | ≥ 10 µM | 0.344
99 | chain 1 M105R G109W | ≥ 10 µM | 0.232
100 | chain 1 M105R W108A | 7.33 µM | 0.498
101 | chain 1 M105R W108L | 0.000333 µM | 0.585
102 | chain 1 M105R Y107G | ≥ 10 µM | 0.615
103 | chain 1 M105S | ≥ 10 µM | 0.889
104 | chain 1 M105S D106E | ≥ 10 µM | 1.32
105 | chain 1 M105S D106N | ≥ 10 µM | 0.443
106 | chain 1 M105S D106S | 6.96 µM | 0.843
107 | chain 1 M105S G109C | ≥ 10 µM | 0.182
108 | chain 1 M105S G109H | ≥ 10 µM | 0.261
109 | chain 1 M105S G109T | ≥ 10 µM | 0.527
110 | chain 1 M105S Y107W | ≥ 10 µM | 0.826
111 | chain 1 M105T | ≥ 10 µM | 1
112 | chain 1 M105T G109C | ≥ 10 µM | 0.27
113 | chain 1 M105T G109L | ≥ 10 µM | 0.188
114 | chain 1 M105T G109V | ≥ 10 µM | 0.216
115 | chain 1 M105T Y107C | ≥ 10 µM | 0.675
116 | chain 1 M105T Y107D | ≥ 10 µM | 0.467
